Where no end group is shown, it is not given here.
Molecular target: Vta1^VSL (S. cerevisiae, UniProt Q06263 1-330)
Experiment: cryo-EM structure
Conditions: both partners purified

B1: Vta1^VSL (domain or fragment)
chain: SYTKDELTKIMDRASKIEQIQKLAKYAISALNYEDLPTAKDELTKALDLLNSI
modifications: also: homodimer
  stoichiometry N: 2

Reference: article PMC5413351, “Structural basis of protein translocation by the Vps4-Vta1 AAA ATPase” (eLife, 2017)
